Experiments:
Assay in all cases: HuProt protein array, F635 z-score
[1] = target: T1, Chromobox protein homolog 5 (CBX5) (human, UniProt P45973 1-191)
T1 construct: The array carries full-length recombinant human proteins expressed in S. cerevisiae; also called Human Chromobox protein homolog 5
From the text: (§1) Large scale protein arrays are versatile and sensitive platforms for antibody specificity evaluation. They can be used for the evaluation of protein binding or affinity reagents that are widely employed in research and clinical applications. The microarray used in our target identification experiment provides the largest number of unique, full-length, individually purified human proteins on a single microscope slide. This allows thousands of interactions to be profiled in a high-throughput manner. The hill-length recombinant proteins are expressed in the yeast S. cerevisiae, purified, and printed on glass slides in duplicate along with a set of control proteins (GST, BSA, histones, IgG, etc.). Such microarray is not restricted to a particular type of surface coating, although the default is glass coated with ultra-thin nitrocellulose film for the non-covalent, yet irreversible, capture of active proteins to the surface. Fourteen Protein arrays were used for the antibody cross-reactivity assay of the samples. The antibodies were probed at […] on the arrays and incubated at room temperature for 1 hour. After probing, the arrays were washed according to the protocol and probed with Alexa-647-anti-human IgG […] specific secondary antibodies under conditions optimized for signal detection. The antibody-antigen binding score was calculated for each protein represented on the array and expressed as z-scores.
(§2) Antibody samples are probed on native HuProt arrays at 1 μg/ml and incubated at room temperature for 1 hour. After probing, the arrays are washed according to the standard protocols and probed with Alexa-647-anti-human IgG Fc gamma specific secondary antibodies under conditions optimized for signal detection.
(§3) Z score is the average Z score of the duplicate spots of a given protein (each protein is printed in duplicate on a HuProt™ array). The Z score of each spot on a given array is calculated according to the equation: […]

[2] = target: T2, O-linked N-acetylglucosamine (GlcNAc) transferase (OGT) (human, UniProt O15294 2-1046)
T2 construct: The array carries full-length recombinant human proteins expressed in S. cerevisiae; also called Human OGT
T2 sequence: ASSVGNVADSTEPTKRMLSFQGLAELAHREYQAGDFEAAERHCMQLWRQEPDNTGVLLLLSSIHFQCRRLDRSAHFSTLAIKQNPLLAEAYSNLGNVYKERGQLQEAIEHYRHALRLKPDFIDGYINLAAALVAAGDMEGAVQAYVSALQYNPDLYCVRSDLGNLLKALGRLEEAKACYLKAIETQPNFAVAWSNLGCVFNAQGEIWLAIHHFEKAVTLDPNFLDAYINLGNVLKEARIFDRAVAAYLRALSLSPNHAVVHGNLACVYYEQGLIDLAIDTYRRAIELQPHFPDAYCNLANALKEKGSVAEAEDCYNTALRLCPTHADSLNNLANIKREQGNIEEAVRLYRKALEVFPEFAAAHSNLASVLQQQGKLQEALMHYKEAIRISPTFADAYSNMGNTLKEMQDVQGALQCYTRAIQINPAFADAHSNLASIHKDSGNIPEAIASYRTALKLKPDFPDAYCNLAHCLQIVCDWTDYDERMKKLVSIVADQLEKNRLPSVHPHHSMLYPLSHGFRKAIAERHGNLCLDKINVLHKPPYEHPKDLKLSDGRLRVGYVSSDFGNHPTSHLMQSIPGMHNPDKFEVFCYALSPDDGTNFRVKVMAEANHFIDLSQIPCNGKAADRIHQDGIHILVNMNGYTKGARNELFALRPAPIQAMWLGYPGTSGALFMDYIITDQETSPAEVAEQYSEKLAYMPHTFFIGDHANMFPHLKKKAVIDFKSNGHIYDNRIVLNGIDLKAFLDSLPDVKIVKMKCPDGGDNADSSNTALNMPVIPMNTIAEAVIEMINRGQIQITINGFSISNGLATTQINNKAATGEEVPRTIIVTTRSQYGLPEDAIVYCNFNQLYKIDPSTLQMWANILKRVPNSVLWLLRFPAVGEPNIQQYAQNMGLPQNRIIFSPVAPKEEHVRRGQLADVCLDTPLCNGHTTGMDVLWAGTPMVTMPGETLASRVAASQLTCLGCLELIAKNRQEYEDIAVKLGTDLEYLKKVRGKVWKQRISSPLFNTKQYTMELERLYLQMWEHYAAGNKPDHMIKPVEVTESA
From the text: as §1, §2, §3

[3] = target: T3, Alpha-taxilin (TXLNA) also known as interleukin-14A (human, UniProt P40222 1-546)
T3 construct: The array carries full-length recombinant human proteins expressed in S. cerevisiae; also called IL-14A; TXLNA/IL-14A
From the text: as §1, §2, §3

[4] = target: T4, Chromobox protein homolog 1 (CBX1) (human, UniProt P83916 1-185)
T4 construct: The array carries full-length recombinant human proteins expressed in S. cerevisiae; also called Human Chromobox protein homolog 1
From the text: as §1, §2, §3

[5] = target: T5, Src homology 2 (SH2) domain containing inositol polyphosphate 5-phosphatase 1 (SHIP1) (human, UniProt Q92835 1-1189)
T5 construct: The array carries full-length recombinant human proteins expressed in S. cerevisiae, purified and printed on glass slides; also called INPP5D; INPP5D/SHIP1
T5 sequence: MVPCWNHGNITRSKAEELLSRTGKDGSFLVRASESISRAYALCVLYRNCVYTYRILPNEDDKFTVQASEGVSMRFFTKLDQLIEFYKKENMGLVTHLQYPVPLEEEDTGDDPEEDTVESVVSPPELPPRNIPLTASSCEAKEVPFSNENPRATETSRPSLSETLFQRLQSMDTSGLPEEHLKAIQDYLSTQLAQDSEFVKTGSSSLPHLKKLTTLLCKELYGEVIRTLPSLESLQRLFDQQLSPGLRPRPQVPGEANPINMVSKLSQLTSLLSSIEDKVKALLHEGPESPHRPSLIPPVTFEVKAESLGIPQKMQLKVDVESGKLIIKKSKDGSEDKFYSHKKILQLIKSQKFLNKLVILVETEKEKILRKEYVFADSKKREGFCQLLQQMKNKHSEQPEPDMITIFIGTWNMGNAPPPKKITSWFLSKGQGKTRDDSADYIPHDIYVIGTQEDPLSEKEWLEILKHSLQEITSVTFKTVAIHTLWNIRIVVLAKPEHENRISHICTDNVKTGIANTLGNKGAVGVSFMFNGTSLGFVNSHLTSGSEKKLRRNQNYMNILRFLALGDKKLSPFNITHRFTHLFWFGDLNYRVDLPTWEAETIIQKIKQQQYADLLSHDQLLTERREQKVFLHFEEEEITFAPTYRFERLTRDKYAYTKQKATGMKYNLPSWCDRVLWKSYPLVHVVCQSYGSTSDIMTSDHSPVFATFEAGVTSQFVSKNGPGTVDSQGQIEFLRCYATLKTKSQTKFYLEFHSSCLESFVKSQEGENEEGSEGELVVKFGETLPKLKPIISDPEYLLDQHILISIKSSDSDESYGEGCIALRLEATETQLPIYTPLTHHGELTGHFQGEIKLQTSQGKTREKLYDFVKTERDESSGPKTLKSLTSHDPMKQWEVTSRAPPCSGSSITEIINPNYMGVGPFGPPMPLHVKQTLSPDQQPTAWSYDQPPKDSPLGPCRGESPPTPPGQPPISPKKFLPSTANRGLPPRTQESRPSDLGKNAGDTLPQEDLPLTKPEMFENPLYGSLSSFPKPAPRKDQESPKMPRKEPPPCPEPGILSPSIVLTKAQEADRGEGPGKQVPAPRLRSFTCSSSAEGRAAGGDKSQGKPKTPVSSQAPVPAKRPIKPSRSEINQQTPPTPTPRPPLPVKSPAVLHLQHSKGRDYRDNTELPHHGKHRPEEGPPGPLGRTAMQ
From the text: as §1, §2, §3

[6] = target: T6, Inorganic pyrophosphatase (PPA1) (human, UniProt Q15181 2-289)
T6 construct: The array carries full-length recombinant human proteins expressed in S. cerevisiae; also called Human PPA1
T6 sequence: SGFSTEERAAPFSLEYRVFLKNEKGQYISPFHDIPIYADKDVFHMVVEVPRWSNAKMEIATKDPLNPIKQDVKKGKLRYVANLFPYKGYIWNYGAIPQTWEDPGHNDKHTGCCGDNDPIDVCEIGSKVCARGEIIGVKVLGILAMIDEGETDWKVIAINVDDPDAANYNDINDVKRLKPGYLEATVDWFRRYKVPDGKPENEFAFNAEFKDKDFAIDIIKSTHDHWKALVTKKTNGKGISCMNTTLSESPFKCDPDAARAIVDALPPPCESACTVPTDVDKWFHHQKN
From the text: as §1, §2, §3

[7] = target: T7, Cancer/testis antigen 1 (CTAG1A) (human, UniProt P78358 1-180)
T7 construct: The array carries full-length recombinant human proteins expressed in S. cerevisiae; also called NY-ESO-1; Cancer/Testis Antigen 1A
From the text: as §1, §2, §3

[8] = target: T8, Melanoma-associated antigen 3 (MAGE-A3) (human, UniProt P43357 1-314)
T8 construct: The array carries full-length recombinant human proteins expressed in S. cerevisiae; also called Human MAGE-A3
From the text: as §1, §2, §3

Measured: binding result

T7 sequence (P78358 whole entry): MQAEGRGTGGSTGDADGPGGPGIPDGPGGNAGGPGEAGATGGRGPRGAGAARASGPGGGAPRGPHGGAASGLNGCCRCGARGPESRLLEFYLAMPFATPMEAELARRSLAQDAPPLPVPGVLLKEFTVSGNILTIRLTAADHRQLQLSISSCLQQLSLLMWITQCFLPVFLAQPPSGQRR
T4 sequence (P83916 whole entry): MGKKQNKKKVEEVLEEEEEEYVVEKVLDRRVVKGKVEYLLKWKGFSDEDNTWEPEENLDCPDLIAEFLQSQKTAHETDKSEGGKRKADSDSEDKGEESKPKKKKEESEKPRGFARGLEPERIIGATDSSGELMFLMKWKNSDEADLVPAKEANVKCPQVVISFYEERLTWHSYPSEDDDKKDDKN
T3 sequence (P40222 whole entry): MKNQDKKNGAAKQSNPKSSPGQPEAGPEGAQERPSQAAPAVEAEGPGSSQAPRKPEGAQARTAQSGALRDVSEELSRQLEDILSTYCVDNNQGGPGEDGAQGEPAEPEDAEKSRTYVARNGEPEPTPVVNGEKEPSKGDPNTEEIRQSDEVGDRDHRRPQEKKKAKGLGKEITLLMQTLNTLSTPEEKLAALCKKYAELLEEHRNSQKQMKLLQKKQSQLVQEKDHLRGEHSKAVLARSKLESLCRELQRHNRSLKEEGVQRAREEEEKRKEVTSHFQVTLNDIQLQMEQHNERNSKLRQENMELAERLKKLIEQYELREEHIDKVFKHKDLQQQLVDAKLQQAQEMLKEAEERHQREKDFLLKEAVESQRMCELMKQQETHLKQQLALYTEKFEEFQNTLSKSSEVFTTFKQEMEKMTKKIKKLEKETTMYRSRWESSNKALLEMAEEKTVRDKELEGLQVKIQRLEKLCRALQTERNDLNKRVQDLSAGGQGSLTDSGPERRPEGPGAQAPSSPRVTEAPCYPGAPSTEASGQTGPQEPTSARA
T1 sequence (P45973 whole entry): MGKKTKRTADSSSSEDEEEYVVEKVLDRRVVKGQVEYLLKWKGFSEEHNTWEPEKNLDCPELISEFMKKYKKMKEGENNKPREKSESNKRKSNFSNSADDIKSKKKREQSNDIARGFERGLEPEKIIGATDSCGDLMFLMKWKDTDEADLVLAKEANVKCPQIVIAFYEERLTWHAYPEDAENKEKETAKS
T8 sequence (P43357 whole entry): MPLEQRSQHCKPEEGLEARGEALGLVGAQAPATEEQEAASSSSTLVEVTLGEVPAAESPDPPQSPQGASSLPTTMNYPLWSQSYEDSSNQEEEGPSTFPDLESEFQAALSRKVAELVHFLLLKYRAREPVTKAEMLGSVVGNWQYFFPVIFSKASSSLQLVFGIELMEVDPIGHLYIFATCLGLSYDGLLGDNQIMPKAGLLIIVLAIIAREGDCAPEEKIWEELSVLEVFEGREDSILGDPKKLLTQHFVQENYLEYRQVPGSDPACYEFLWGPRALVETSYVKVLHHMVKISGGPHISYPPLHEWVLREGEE

B1: TMEL1006 (antibody, V domains shown)
VH: VVQLVESGGGLVQPGGSLRLSCAASGLTFRNYAMSWVRQAPGKGLEWVSAISGSGGRTHYADSVKGRFTISRDNSKNTLFLQMNSLRAEDTAVYYCAKEIGKYGTPTLFQHWGQGTLVTVSS
VL: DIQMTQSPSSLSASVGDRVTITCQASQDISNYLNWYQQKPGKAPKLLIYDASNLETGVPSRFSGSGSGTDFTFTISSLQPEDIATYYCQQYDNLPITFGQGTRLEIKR
notes: It was detected with an anti-human IgG Fc gamma secondary antibody
not listed: [7] | [8]
no binding (tested: 1 µg/ml): all other assays above

B2: TMEL1001 (antibody, V domains shown)
VH: EVQLVESGGGLVKPGGSLRLSCAASGFTFRSYSMNWVRQAPGKGLEWVSSISSSGNYIYYADSVKGRFTLSRDNAKNSLYLQMNSLRAEDTAVYYCARGGGTSWSHYWGQGTLVTVSS
VL: QFMLTQPHSVSESPGKTVTISCTRSSGSIASNYVQWYQQRPGSAPTTVIYEDNERPSGVPDRFSGSIDSSSNSASLTISGLKTEDEADYYCQSYDSNNRWVFGGGTKLTVLG
notes: as for B1
not listed: [5]
no binding (tested: 1 µg/ml): all other assays above

B3: TMEL1003 (antibody, V domains shown)
VH: AVQLVQSGAEVKKPGESLRISCKGSGYSFTSYWISWVRQMPGKGLEWMGRIDPSDSYTNYSPSFQGHVTISADKSISTAYLQWSSLKTSDTAMYYCARPLQTYSIASVGHWGQGTLVTVSS
VL: ASALTQPASVSGSPGQSITISCTGTSSDVGSYNLVSWYQQHPGKAPKLMIYEGSKRPSGVSNRFSGSKSGNTASLTISGLQAEDEADYYCCSYAGSSTFAVFGGGTKLTVLG
notes: the heavy entry continues into what looks like a non-IgG (IgM-like) CH1; It was detected with an anti-human IgG Fc gamma secondary antibody
no binding (tested: 1 µg/ml): [2] | [5] | [7] | [8] | [6]

Source: patent publication US20220031841A1 (ABSCI, published 2022)
